Results on two molecules are retold here after patent publication EP4545090A1 (Universität Leipzig, dated 2025).

Test [1] addresses IFNAR1 as used in the microscale thermophoresis binding assay (Homo sapiens (Human)) (UniProt P17181). Put plainly: microscale thermophoresis binding assay. For orientation: Microscale thermophoresis detects binding through changes in fluorescence in a small temperature gradient.
For test [2], the target named is T1, IFNGR1, human, endogenous in podocytes (human, UniProt P15260 18-489).
T1 construct: whole, on cells
T1 sequence (looked up): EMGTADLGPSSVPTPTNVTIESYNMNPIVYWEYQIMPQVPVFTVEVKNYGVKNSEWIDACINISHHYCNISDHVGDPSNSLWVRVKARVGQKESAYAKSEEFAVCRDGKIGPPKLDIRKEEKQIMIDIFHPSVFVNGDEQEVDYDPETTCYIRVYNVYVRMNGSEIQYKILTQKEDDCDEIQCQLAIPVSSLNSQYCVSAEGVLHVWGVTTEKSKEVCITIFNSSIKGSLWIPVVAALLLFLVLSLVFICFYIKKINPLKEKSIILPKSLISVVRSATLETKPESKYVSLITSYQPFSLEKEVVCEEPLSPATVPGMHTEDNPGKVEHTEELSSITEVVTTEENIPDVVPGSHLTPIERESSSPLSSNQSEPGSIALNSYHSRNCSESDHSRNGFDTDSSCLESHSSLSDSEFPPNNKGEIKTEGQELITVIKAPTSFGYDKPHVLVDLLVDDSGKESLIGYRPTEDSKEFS
Nature of the test: TF co-immunoprecipitation from human podocyte lysates, immunoblot. (In general: Immunoblotting shows a protein as a band on a membrane.)

In test [1], “tissue factor (TF) as used in the microscale thermophoresis binding assay (from UniProt P13726 33-251) (receptor)” displayed a Kd of 1160 nM.

B1: tissue factor (TF), human, as expressed by cells (receptor)
chain: SGTTNTVAAYNLTWKSTNFKTILEWEPKPVNQVYTVQISTKSGDWKSKCFYTTDTECDLTDEIVKDVKQTYLARVFSYPAGNVESTGSAGEPLYENSPEFTPYLETNLGQPTIQSFEQVGTKVNVTVEDERTLVRRNNTFLSLRDVFGKDLIYTLYYWKSSSSGKKTAKTNTNEFLIDVDKGENYCFSVQAVIPSRTVNRKGTDSPVECMGQEKGEFREIFYIIGAVVFVVIILVIILAISLHKCRKAGVGQSWKENSPLNVS
notes: also called hTF; human TF
With B1, in test [2], the binding result was “no binding”.

By Kd is commonly meant the equilibrium constant for the complex coming apart. A high value points to weaker binding.
